B1: Mothers against decapentaplegic homolog 4 (Homo sapiens), Q13485 (parent)
chain: MDNMSITNTPTSNDACLSIVHSLMCHRQGGESETFAKRAIESLVKKLKEKKDELDSLITAITTNGAHPSKCVTIQRTLDGRLQVAGRKGFPHVIYARLWRWPDLHKNELKHVKYCQYAFDLKCDSVCVNPYHYERVVSPGIDLSGLTLQSNAPSSMMVKDEYVHDFEGQPSLSTEGHSIQTIQHPPSNRASTETYSTPALLAPSESNATSTANFPNIPVASTSQPASILGGSHSEGLLQIASGPQPGQQQNGFTGQPATYHHNSTTTWTGSRTAPYTPNLPHHQNGHLQHHPPMPPHPGHYWPVHNELAFQPPISNHPAPEYWCSIAYFEMDVQVGETFKVPSSCPIVTVDGYVDPSGGDRFCLGQLSNVHRTEAIERARLHIGKGVQLECKGEGDVWVRCLSDHAVFVQSYYLDREAGRAPGDAVHKIYPSAYIKVFDLRQCHRQMQQQAATAQAAAAAQAAAVAGNIPGPGSVGGIAPAISLSAAAGIGVDDLRRLCILRMSFVKGWGPDYPRQSIKETPCWIEIHLHRALQLLDEVLHTMPIADPQPLD
partner: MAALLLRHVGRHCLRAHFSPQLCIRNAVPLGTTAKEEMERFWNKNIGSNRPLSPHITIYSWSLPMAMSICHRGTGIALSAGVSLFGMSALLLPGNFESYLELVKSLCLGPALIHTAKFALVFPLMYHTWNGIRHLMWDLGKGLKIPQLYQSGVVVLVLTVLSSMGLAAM
B2: Mothers against decapentaplegic homolog 4 (Homo sapiens), Q13485 (parent)
chain: B1 chain
partner: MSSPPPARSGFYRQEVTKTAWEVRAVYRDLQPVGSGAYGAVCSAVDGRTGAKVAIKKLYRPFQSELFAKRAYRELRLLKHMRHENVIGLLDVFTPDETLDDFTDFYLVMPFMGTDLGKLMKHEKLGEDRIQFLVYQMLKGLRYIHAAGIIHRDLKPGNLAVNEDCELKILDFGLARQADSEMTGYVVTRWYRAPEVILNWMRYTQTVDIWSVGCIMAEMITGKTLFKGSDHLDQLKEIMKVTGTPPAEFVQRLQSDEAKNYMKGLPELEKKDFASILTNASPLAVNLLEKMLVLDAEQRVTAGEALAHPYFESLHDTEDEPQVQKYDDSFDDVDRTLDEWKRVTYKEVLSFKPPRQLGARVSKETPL
B3: Mothers against decapentaplegic homolog 4 (Homo sapiens), Q13485 (parent)
chain: B1 chain
partner: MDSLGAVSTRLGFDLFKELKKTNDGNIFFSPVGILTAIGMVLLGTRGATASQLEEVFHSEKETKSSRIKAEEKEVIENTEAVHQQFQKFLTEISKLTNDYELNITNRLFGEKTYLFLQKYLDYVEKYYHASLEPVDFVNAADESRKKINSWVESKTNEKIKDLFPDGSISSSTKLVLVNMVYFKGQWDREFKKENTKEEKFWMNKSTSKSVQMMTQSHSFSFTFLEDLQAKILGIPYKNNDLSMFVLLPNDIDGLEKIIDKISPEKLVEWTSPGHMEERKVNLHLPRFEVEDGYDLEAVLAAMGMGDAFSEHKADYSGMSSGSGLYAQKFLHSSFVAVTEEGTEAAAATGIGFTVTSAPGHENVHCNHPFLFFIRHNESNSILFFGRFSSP
B4: Mothers against decapentaplegic homolog 4 (Homo sapiens), Q13485 (parent)
chain: B1 chain
partner: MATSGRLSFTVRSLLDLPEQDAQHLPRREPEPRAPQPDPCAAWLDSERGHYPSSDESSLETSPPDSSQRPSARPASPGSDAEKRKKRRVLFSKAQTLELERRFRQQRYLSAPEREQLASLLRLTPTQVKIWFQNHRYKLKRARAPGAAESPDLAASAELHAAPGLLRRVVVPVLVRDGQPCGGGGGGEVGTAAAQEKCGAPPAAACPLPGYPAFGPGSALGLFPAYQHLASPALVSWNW
B5: Mothers against decapentaplegic homolog 4 (Homo sapiens), Q13485 (parent)
chain: B1 chain
partner: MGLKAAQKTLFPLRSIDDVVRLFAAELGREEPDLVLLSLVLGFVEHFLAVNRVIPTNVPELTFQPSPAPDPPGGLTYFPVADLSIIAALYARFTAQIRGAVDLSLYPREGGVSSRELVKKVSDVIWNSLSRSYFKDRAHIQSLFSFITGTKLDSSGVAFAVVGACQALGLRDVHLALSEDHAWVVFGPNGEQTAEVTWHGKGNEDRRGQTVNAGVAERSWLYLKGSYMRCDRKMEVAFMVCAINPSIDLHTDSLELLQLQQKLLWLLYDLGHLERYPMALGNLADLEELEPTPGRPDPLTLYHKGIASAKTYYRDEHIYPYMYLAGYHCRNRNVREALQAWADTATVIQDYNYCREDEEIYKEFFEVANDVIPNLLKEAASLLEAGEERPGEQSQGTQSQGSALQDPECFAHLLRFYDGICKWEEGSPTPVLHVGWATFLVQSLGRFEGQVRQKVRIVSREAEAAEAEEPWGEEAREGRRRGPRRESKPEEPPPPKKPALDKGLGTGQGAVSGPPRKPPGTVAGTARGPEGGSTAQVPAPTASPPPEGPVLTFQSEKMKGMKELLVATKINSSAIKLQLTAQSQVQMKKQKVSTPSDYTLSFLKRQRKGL
B6: Mothers against decapentaplegic homolog 4 (Homo sapiens), Q13485 (parent)
chain: B1 chain
partner: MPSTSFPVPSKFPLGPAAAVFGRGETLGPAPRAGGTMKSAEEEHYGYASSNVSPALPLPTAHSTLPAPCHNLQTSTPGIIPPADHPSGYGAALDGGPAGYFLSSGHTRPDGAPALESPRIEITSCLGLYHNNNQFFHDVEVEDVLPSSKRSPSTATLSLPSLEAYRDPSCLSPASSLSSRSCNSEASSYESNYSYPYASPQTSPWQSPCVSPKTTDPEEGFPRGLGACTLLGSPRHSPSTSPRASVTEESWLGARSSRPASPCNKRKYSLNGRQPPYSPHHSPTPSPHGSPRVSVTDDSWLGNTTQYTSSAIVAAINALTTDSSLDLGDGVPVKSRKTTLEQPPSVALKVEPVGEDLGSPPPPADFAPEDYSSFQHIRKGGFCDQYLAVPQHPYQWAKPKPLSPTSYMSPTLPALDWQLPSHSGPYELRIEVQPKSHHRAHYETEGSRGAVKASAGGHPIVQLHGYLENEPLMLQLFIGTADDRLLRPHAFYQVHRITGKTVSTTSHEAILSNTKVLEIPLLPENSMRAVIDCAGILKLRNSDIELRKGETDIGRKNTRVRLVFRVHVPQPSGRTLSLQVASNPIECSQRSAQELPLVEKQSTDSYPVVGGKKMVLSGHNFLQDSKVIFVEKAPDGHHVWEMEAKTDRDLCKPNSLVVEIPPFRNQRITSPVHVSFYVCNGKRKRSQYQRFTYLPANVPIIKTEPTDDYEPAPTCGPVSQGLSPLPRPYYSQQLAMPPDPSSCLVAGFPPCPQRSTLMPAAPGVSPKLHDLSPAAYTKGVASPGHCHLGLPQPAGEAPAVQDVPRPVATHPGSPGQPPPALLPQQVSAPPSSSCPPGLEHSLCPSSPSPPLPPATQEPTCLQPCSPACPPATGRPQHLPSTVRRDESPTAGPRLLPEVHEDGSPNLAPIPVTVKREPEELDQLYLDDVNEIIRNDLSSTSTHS

Variants of: B1
Conditions: with c560_human SDHC

| effect of a mutation on the interaction | Variant |
| --- | --- |
| with no effect | D351H |

Variants of: B1
Conditions: with c560_human SDHC
Remark: another data set of the same source

| effect of a mutation on the interaction | Variant |
| --- | --- |
| with no effect | R361C |

Variants of: B1
Conditions: with c560_human SDHC
Remark: another data set of the same source

| effect of a mutation on the interaction | Variant |
| --- | --- |
| with no effect | R361H |

Variants of: B1
Conditions: with c560_human SDHC
Remark: another data set of the same source

| effect of a mutation on the interaction | Variant |
| --- | --- |
| with no effect | G386D |

Variants of: B2
Conditions: with mk12_human MAPK12, P53778

| effect of a mutation on the interaction | Variant |
| --- | --- |
| with no effect | R361H |

Variants of: B2
Conditions: with mk12_human MAPK12, P53778
Remark: another data set of the same source

| effect of a mutation on the interaction | Variant |
| --- | --- |
| with no effect | R361C |

Variants of: B2
Conditions: with mk12_human MAPK12, P53778
Remark: another data set of the same source

| effect of a mutation on the interaction | Variant |
| --- | --- |
| with no effect | G386D |

Variants of: B2
Conditions: with mk12_human MAPK12, P53778
Remark: another data set of the same source

| effect of a mutation on the interaction | Variant |
| --- | --- |
| with no effect | D351H |

Variants of: B3
Conditions: with spb13_human SERPINB13, Q9UIV8

| effect of a mutation on the interaction | Variant |
| --- | --- |
| with no effect | G386D |

Variants of: B3
Conditions: with spb13_human SERPINB13, Q9UIV8
Remark: another data set of the same source

| effect of a mutation on the interaction | Variant |
| --- | --- |
| with no effect | D351H |

Variants of: B3
Conditions: with spb13_human SERPINB13, Q9UIV8
Remark: another data set of the same source

| effect of a mutation on the interaction | Variant |
| --- | --- |
| with no effect | R361C |

Variants of: B3
Conditions: with spb13_human SERPINB13, Q9UIV8
Remark: another data set of the same source

| effect of a mutation on the interaction | Variant |
| --- | --- |
| with no effect | R361H |

Variants of: B4
Conditions: with nkx28_human NKX2-8, O15522

| effect of a mutation on the interaction | Variant |
| --- | --- |
| with no effect | R361C |

Variants of: B4
Conditions: with nkx28_human NKX2-8, O15522
Remark: another data set of the same source

| effect of a mutation on the interaction | Variant |
| --- | --- |
| with no effect | R361H |

Variants of: B4
Conditions: with nkx28_human NKX2-8, O15522
Remark: another data set of the same source

| effect of a mutation on the interaction | Variant |
| --- | --- |
| with no effect | D351H |

Variants of: B4
Conditions: with nkx28_human NKX2-8, O15522
Remark: another data set of the same source

| effect of a mutation on the interaction | Variant |
| --- | --- |
| with no effect | G386D |

Variants of: B5
Conditions: with men1_human MEN1, O00255

| effect of a mutation on the interaction | Variant |
| --- | --- |
| with no effect | D351H |

Variants of: B5
Conditions: with men1_human MEN1, O00255
Remark: another data set of the same source

| effect of a mutation on the interaction | Variant |
| --- | --- |
| with no effect | G386D |

Variants of: B5
Conditions: with men1_human MEN1, O00255
Remark: another data set of the same source

| effect of a mutation on the interaction | Variant |
| --- | --- |
| with no effect | R361H |

Variants of: B5
Conditions: with men1_human MEN1, O00255
Remark: another data set of the same source

| effect of a mutation on the interaction | Variant |
| --- | --- |
| with no effect | R361C |

Variants of: B6
Conditions: with nfac1_human NFATC1, O95644

| effect of a mutation on the interaction | Variant |
| --- | --- |
| with no effect | G386D |

Variants of: B6
Conditions: with nfac1_human NFATC1, O95644
Remark: another data set of the same source

| effect of a mutation on the interaction | Variant |
| --- | --- |
| with no effect | R361C |

Variants of: B6
Conditions: with nfac1_human NFATC1, O95644
Remark: another data set of the same source

| effect of a mutation on the interaction | Variant |
| --- | --- |
| with no effect | R361H |

Variants of: B6
Conditions: with nfac1_human NFATC1, O95644
Remark: another data set of the same source

| effect of a mutation on the interaction | Variant |
| --- | --- |
| with no effect | D351H |

Source: IntAct's records for PubMed 35512704
